Results from publication PMC4661877, “Enhancement of Chaperone Activity of Plant-Specific Thioredoxin through γ-Ray Mediated Conformational Change” (International Journal of Molecular Sciences, 2015).

Target: the molecule itself
Assay: SEC; Superdex 200 10/300 GL, FPLC, 4 °C, 50 mM HEPES pH 8.0, 100 mM NaCl, 0.5 mL/min; size against standard proteins

B1: Arabidopsis thaliana tetratricopeptide domain-containing thioredoxin (AtTDX), non-irradiated (enzyme, UniProt Q8VWG7 1-380, looked up)
chain: MVDAIQVAELRRFVEQLKLNPSILHDPSLVFFKEYLRSLGAQVPKIEKTERDYEDKAETKPSFSPKHDDDDDDIMESDVELDNSDVVEPDNEPPQPMGDPTAEVTDENRDDAQSEKSKAMEAISDGRFDEAIEHLTKAVMLNPTSAILYATRASVFLKVKKPNAAIRDANVALQFNSDSAKGYKSRGMAKAMLGQWEEAAADLHVASKLDYDEEIGTMLKKVEPNAKRIEEHRRKYQRLRKEKELQRAERERRKQQEAQEREAQAALNDGEVISIHSTSELEAKTKAAKKASRLLILYFTATWCGPCRYMSPLYSNLATQHSRVVFLKVDIDKANDVAASWNISSVPTFCFIRDGKEVDKVVGADKGSLEQKIAQHSSSK
notes: AtTDX, Arabidopsis thaliana tetratricopeptide domain-containing thioredoxin; 380 amino acids, 42 kDa; three TPR domains at the amino terminus and a thioredoxin domain at the carboxyl terminus; Mixture of LMW (mainly tetrameric) and HMW forms; also called non-irradiated AtTDX; 0 kGy
In the case of B1, the “stoichiometry N” value is reported as 4.
